Test results as given in US8889130B2, “Treatment of osteoarthritis and pain” (Abbvie Inc., priority 2011, dated 2014).

B1: DVD2-Ig: DVD-Ig as DVD1-Ig but with linkers ADAAP (light chain) and AKTTPP (heavy chain) (antibody)
VH: MQLSGLTSEDSAMYFCVRFPTGNDYYAMDYWGQGTSVTVSSAKTTPPQIQLVQSGPELKKPGETVKISCKASGYTFRNYGMNWVKQAPGKDLKRMAWINTYTGESTYADDFKGRFAFSLETSASTAYLQINNLKNEDTATYFCARGIYYYGSSYAMDYWGQGTSVTVSS
VL: PVEADDAATYYCQQNNEDPFTFGSGTKLEIKRADAAPNIQMTQTTSSLSASLGDRVTISCRASQDISNCLNWYQQKPDGTVKLLIYYTSRLHSGVPSRFSGSGSGTDYSLTISNLEQEDIATYFCQQGKTLPYAFGGGTKLEINR
B2: DVD1-Ig: DVD-Ig binding hIL-1α and hIL-1β; VH/VL of 13F5.G5 fused directly to N-terminus of 3D12.E3 VH/VL, no linker (antibody)
VH: MQLSGLTSEDSAMYFCVRFPTGNDYYAMDYWGQGTSVTVSSQIQLVQSGPELKKPGETVKISCKASGYTFRNYGMNWVKQAPGKDLKRMAWINTYTGESTYADDFKGRFAFSLETSASTAYLQINNLKNEDTATYFCARGIYYYGSSYAMDYWGQGTSVTVSS
VL: PVEADDAATYYCQQNNEDPFTFGSGTKLEIKRNIQMTQTTSSLSASLGDRVTISCRASQDISNCLNWYQQKPDGTVKLLIYYTSRLHSGVPSRFSGSGSGTDYSLTISNLEQEDIATYFCQQGKTLPYAFGGGTKLEINRR

Key:
[1] = Size exclusion chromatography (SEC): physical homogeneity and in vitro stability; type: physicochemical; details: for Ab (intact antibody) / Agg (aggregates) / Frgm (fragments): 0.2-0.4 mg/ml in PBS; for Ab (intact antibody) / Agg (aggregates) / Frgm (fragments) / aggregation and fragmentation in stability analysis: SEC; for aggregation and fragmentation in stability analysis: PBS, freeze-thaw, 4, 25, 40° C. for 4 and 8 weeks; for SEC profile of purified protein (physical homogeneity): purified protein in PBS
Experimental: For measuring molecular weight (MW) of light and heavy chains of DVD-Ig binding protein, 10 μL of DVD-Ig molecule (0.8 μg/μL) was reduced by 1.0 M DTT solution (5 μL). A PLRP-S, 8μ, 4000 A, and 1×150 mm protein column (Michrom BioResource, Auburn, Mass.) was used to separate heavy and light chains of DVD-Ig molecule. Agilent HP1100 Capillary HPLC (Agilent Technologies Inc., Pala Alto, Calif.) was used with the mass spectrometer QSTAR (Applied Biosystems, Foster City, Calif.). The valco valve was set at 10 minutes to switch the flow from waste to MS for desalting sample. Buffer A was 0.02% TFA, 0.08% FA, 0.1% ACN and 99.8% HPLC-H2O. Buffer B contained 0.02% TFA, 0.08% FA, 0.1% HPLC-H2O, and 99.8% ACN. The HPLC flow rate was 50 μL/minute and the sample injection volume was […]. The temperature of the column oven was set at 60° C., and separation gradient was: 5% B for 5 minutes; 5% B to 65% B for 35 minutes; 65% B to 95% B for another 5 minutes, and 95% B to 5% B for 5 minutes. TOFMS scan was from 800 to 2500 amu, and cycles were 3600. To determine the MW of full length DVD-Ig binding protein, a Protein MicroTrap cartridge (Michrom BioResource, Auburn, Mass.) was used for desalting the sample. The HPLC gradient was: 5% B for 5 minutes; 5% B to 95% B in 1 minute; and from 95% B to 5% B in another 4 minutes. The QSTAR TOFMS scan was from 2000 to 3500 amu, and cycles were 899. All MS raw data were analyzed using the Analyst QS software (Applied Biosystems). For SEC analysis of the DVD-Ig binding protein, purified DVD-Ig binding protein and chimeric Abs, in PBS, were applied on a Superose 6 10/300 G2, 300×10 mm column (Amersham Bioscience, Piscataway, N.J.). An HPLC instrument, Model 10A (Shimadzu, Columbia, Md.) was used for SEC. All proteins were determined using UV detection at 280 nm and 214 nm. The elution was isocratic at a flow rate of 0.5 mL/minute. For stability study, samples in the concentration range of 0.2-0.4 mg/ml in PBS underwent 3 freeze-thaw cycles between −80° C. and 25° C., or were incubated at 4° C., 25° C., or 40° C., for 4 weeks and 8 weeks, followed by SEC analysis.
In order to determine the precise molecular weight of the DVD-Ig binding proteins, mass spectrometry was employed. […] To further study the physical properties of DVD-Ig binding protein in solution, size exclusion chromatography (SEC) was used to analyze each protein.
The physical stability of DVD-Ig was tested as follows. Purified antibodies in the concentration range of 0.2-0.4 mg/ml in PBS underwent 3 freeze-thaw cycles between −80° C. and 25° C., or were incubated at 4° C., 25° C., or 40° C., for 4 weeks and 8 weeks, followed by analysis using size exclusion chromatography (SEC) analysis (see Table 12).

[2] = test system: both IL-1α and IL-1β; experiment: MRC-5 assay in the presence of both IL-1α and IL-1β (IL-8 synthesis); type: cell-based, human; details: equal amounts of hIL-1α and hIL-1β in the same culture; read-out: dual-inhibition activity (IL-8 synthesis by MRC-5 cells)
Experimental: The biological activity of DVD-Ig was measured using MRC-5 bioassay. The MRC-5 cell line is a human lung fibroblast cell line that produces IL-8 in response to human IL-1α and IL-1β in a dose-dependent manner. MRC-5 cells were obtained from ATCC and cultured in 10% FBS complete MEM at 37° C. in a 5% CO2 incubator. To determine neutralizing activity of the DVD-Ig against human IL-1α or IL-1β, 50 μl of antibody (1×10^−7 to 1×10^−12 M) in MEM/10% FBS was added to a 96 well plate and pre-incubated with 50 μl of hIL-1α or hIL-1β (200 pg/ml) for 1 hour at 37° C., 5% CO2. MRC-5 cells at a concentration of 1×10^5/ml were then added (100 μl) to all wells, and the plates were incubated overnight at 37° C. in a 5% CO2 incubator. The supernatants were harvested and human IL-8 production measured by standard ELISA (R&D Systems, Minneapolis, Minn.). Neutralizing activity of the DVD-Ig binding protein was determined by its ability to inhibit IL-8 production.
To determine if DVD-Ig binding protein was able to inhibit IL-8 production in the presence of both IL-1α and IL-1β, equal amounts of hIL-1α and hIL-1β were added in the same culture system of MRC-5 assay. […]

[3] = 3xFreeze-Thaw between −80° C. and 25° C.

Row | Molecule | Ab (intact antibody) [1, 3] [percentage] | Agg (aggregates) [1, 3] [percentage] | Frgm (fragments) [1, 3] [percentage] | Ab (intact antibody) ([1]; 4° C. @ 4 Wks) [percentage] | Agg (aggregates) ([1]; 4° C. @ 4 Wks) [percentage] | Frgm (fragments) ([1]; 4° C. @ 4 Wks) [percentage] | Ab (intact antibody) ([1]; 4° C. @ 8 Wks) [percentage] | Agg (aggregates) ([1]; 4° C. @ 8 Wks) [percentage] | Frgm (fragments) ([1]; 4° C. @ 8 Wks) [percentage] | Ab (intact antibody) ([1]; 25° C. @ 4 Wks) [percentage] | Agg (aggregates) ([1]; 25° C. @ 4 Wks) [percentage] | Frgm (fragments) ([1]; 25° C. @ 4 Wks) [percentage] | Ab (intact antibody) ([1]; 25° C. @ 8 Wks) [percentage] | Agg (aggregates) ([1]; 25° C. @ 8 Wks) [percentage] | Frgm (fragments) ([1]; 25° C. @ 8 Wks) [percentage] | Ab (intact antibody) ([1]; 40° C. @ 4 Wks) [percentage] | Agg (aggregates) ([1]; 40° C. @ 4 Wks) [percentage] | Frgm (fragments) ([1]; 40° C. @ 4 Wks) [percentage] | Ab (intact antibody) ([1]; 40° C. @ 8 Wks) [percentage] | Agg (aggregates) ([1]; 40° C. @ 8 Wks) [percentage] | also measured
1 | B1 | 100.0 | 0.0 | 0.0 | 100.0 | 0.0 | 0.0 | 100.0 | 0.0 | 0.0 | 100.0 | 0.0 | 0.0 | 100.0 | 0.0 | 0.0 | 100.0 | 0.0 | 0.0 | 100.0 | 0.0 | Frgm (fragments) ([1]; 40° C. @ 8 Wks): 0.0 percentage; aggregation and fragmentation in stability analysis [1]: Neither aggregation nor fragmentation was detected; maintained as intact monomeric molecule ([1]; all conditions tested (freeze-thaw; 4, 25, 40° C. for 4 and 8 weeks)): 100%; SEC profile of purified protein (physical homogeneity) [1]: a single peak; IC50 [2]: 1.2 nM
2 | B2 | 53.50 | 46.50 | 0.00 | 56.63 | 42.43 | 0.94 | 56.91 | 38.18 | 4.91 | 54.34 | 45.66 | 0.00 | 67.39 | 24.42 | 8.19 | 59.42 | 36.70 | 3.88 | 67.16 | 20.55 | Frgm (fragments) ([1]; 40° C. @ 8 Wks): 12.29 percentage; aggregation and fragmentation in stability analysis [1]: showed aggregations in PBS under different conditions; SEC profile of purified protein (physical homogeneity) [1]: a major peak as well as a shoulder peak on the right; IC50 [2]: 2.2 nM
